Results taken from the supplement of paper PMC9170038.

Experiments:
MS2 coat protein [1] = experiment: apparent KD of MS2 coat protein, switch ON state; designed switch direction (-1 OFF switch, 1 ON switch): -1; higher = weaker reporter binding; settings: FMN input: 0 or 200 uM; Eterna round: R93 (includes R88 designs)
Summary of the method: (§1)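 Normalised binding curves from single clusters were fitted, and the median fit for each design is given as apparent KD. The clusters held designed RNA switches transcribed on-chip from Illumina sequencing clusters. These were titrated with SNAP-549-labelled MS2 coat protein (twofold steps from 0.7 or 1.5 nM to 3 µM, 0.8–1.5 h to 10–20 min per step) in 100 mM Tris-HCl pH 7.5, 80 mM KCl, 4 mM MgCl2, without or with constant ligand.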

MS2 coat protein [2] = experiment: apparent KD of MS2 coat protein, switch OFF state (with FMN for OFF switches, without FMN for ON switches); designed switch direction (-1 OFF switch, 1 ON switch): -1; higher = weaker reporter binding; settings: FMN input: 0 or 200 uM; Eterna round: R93 (includes R88 designs)
Summary of the method: as §1

Sequence | apparent KD of MS2 coat protein (MS2 coat protein [1]) [nM] | apparent KD of MS2 coat protein (MS2 coat protein [2]) [nM]
CAGUACUGAGGAUAUACAUGAGGAUCACCCAUGUAUCAAAGCUAGGAAACUAGCACAUGUAGAAGGCAGUACUG [Ex3: 823] | 25.7 | 132
AAGAAGUGAGGAUAUACAAAAUAAAAGAAAAGAAAGAAAGAACAUGAGGAUCACCCAUGUAGAAGGCGCAAGAA [Merhotepre Ini] | 24.5 | 24.9
AAGGAUAGAGGAUAUACAUAGAUACAGAUUCAUGUAGAACUACAUGAGGAUCACCCAUGUAGAAGGCUAUCAUA [AJ 32] | 27.9 | 89.1
AGAAAGUGAGGAUAUACAGAUAAAAAAACGAAAAAAAAUCUGUAGAAGGCACAUGAGGAUCACCCAUGUAAAGA [Mat - Exclusion 4 - Mayanna - D108] | 37.9 | 37.1
AAAAUGUCAGGAUAUGUAGCAUGAUACGAAAGUAUCAUGCUACAGAAGGGACAUGAGGAUCACCCAUGUGAUCA [Ex4: 939] | 59.7 | 45
AUAAAACAUGAGGAUCACCCAUGUGAGGAUAUGCUAAAAUAAAAUAAAAUAAAAUAAUGCAGAAGGCACAAAUA [Fancy Pants] | 37.6 | 53.8
CACGUACAUGAGGAUCACCCAUGUUAGGAUAUGCCGGGUAAGAGAAAACAAAAAAUCAGCAGAAGGAACGAAAC [Bilbo Confounded 18 - Jieux - Exclusion 1] | 28.2 | 28.5
AAGAAGCGAGGAUAUACAUGAGGAUCACCCAUGUAAAAGAAAGAAGGGAAAGAGAAAAGUAGAAGGCGCAAGAA [Hedjkheperre-setpenre Takelot II] | 70.7 | 109
AAAAAACAUGAGGAUCACCCAUGUAAGGAUAUGUAAAAUAAAAGAAAAAUAAAGAAAAGCAGAAGGUAUAUGUA [JL wbt mod 17] | 29 | 24.7
AAAAGUUGAGGAUAUACAAAAUGAUUGCGAAAUCAAUUAAAACAUGAGGAUCACCCAUGUAGAAGGCGAUAAAA [Banishment 4 - Jieux - Exclusion 2] | 27 | 21.6
CUCAAGUCAGGAUAUUAAAGAAAAGAAGAGAAAGAAAAGAAUAAGAAGGGACAUGAGGAUCACCCAUGUAAGAA [EteRNA is fun!] | 57.3 | 30.9
ACAAAGUGAGGAUAUGCUAUCGUACAAUAUAGUUAUCGUAUGCAGAAGGCACAUGAGGAUCACCCAUGUAAGAA [Ex 4 Tesla 9] | 40.7 | 36.7
CUCUUGUCAGGAUAUCCAAGAAAAGAAAAGAAAGAAAAGAAGGAGAAGGGACAUGAGGAUCACCCAUGUAAGAA [EteRNA is fun!] | 72.3 | 113
AAAAAGUGAGGAUAUGUCAAAGGUCACGAAAGUGACAAAGGACAGAAGGCACAUGAGGAUCACCCAUGUAAAAA [Fiskers Exclusion 4D1 65% - Early G segment 1] | 37.4 | 43.6
AAAAAGGCAGGAUAUGCAUACCCACGGAAAAAAAGGUUGGGACAUGAGGAUCACCCAUGUAGAAGGGCCAAAAA [Dora Explored 13 - Jieux - Exclusion 2] | 43.4 | 22.4
AACAGUACAGGAUAUACAUGAGGAUCACCCAUGUGAGAAACCAGUGGCGUACCACAAAGUAGAAGGGUACUGGA [Moding Maslow Revisited (73) 28] | 42.4 | 185
AAAGGACGAGGAUAUACAUGAGGAUCACCCAUGUAAAAAACAUAAUAAAAGAACUUGUGUAGAAGGCGUCCAAA [Meechl Ex3 2 R2 v6] | 93 | 335
AAAAGACAUGAGGAUCACCCAUGUGAGGAUAUGACGUAAAUAAAGAAAGAAGAAAUCGUCAGAAGGCACACCUA [55%, Disencluded 2, 1] | 29.5 | 63.4
AAAAGUACAGGAUAUACAUGAGGAUCACCCAUGUGAAAAUUAAGUGGCGUACAACAAAGUAGAAGGGUACUGGA [Ruby 52] | 20.7 | 44.6
AAAAUGUCAGGAUAUCUGGAUAGGAAAAAGAAAACCUAUCCAGAGAAGGGACAUGAGGAUCACCCAUGUAAAAA [JL cataway mod 3] | 92.9 | 171

Sequence | apparent KD of MS2 coat protein (MS2 coat protein [1]) [nM] | apparent KD of MS2 coat protein (MS2 coat protein [2]) [nM]
CAGUACUGAGGAUAUACAUGAGGAUCACCCAUGUGGUCAAGCUAGGAAACUAGCAAAUGUAGAAGGCAGUACUG [Ex3: 812] | 80.9 | 35.6
AAAAAUGGAGGAUAUACAUGAGGAUCACCCAUGUGUAACUAUACAAAACACAAAAAAAGUAGAAGGCCAAAAAA [Gilly Gone Silly 7 - Jieux - Exclusion 3] | 20.1 | 19.3
AACAGUACAGGAUAUACAUGAGGAUCACCCAUGUAAAGGGAAAGUGGCGUACCACAAAGUAGAAGGGUACUGGA [Moding Maslow revisited (73) 5] | 40.1 | 175
AAAAAGUGAGGAUAUGUCAAAGGUCACGAAAGUGACAAAGGACAGAAGGCACAUGAGGAUCACCCAUGUGGAAA [Fiskers Exclusion 4D1 65% - Early + late G segment 3] | 27.3 | 27.6
GGAAAGCAAGGAUAUACAAACAAACAAACAAACAAAAGGGAACAUGAGGAUCACCCAUGUAGAAGGUGCAAACA [Exclusion 2 XX] | 41 | 31.8
AAGAGUAGAGGAUAUACAAAGGGAGAGUCGAAAGACUCAAAACAUGAGGAUCACCCAUGUAGAAGGCUACUCAA [Hyphema Seclusion Mod 62% 7] | 213 | 746
CUCAUGUCAGGAUAUCAGUAGUAAAAAAAUAAAAUUACUACUGAGAAGGGACAUGAGGAUCACCCAUGUCAAAA [EX4 363: Super Stable 63] | 20.7 | 19.8
AAAAAAAAAGGAUAUACAGGAGGUAAGGUCGAAAAAAAAAAACAUGAGGAUCACCCAUGUAGAAGGUUUAAAAA [Excls2-VIII] | 27 | 30.6
GAGAAGUUAGGAUAUACAGCGGGUAGCCGCGGUGGCCUUAGACAUGAGGAUCACCCAUGUAGAAGGAACGAAAA [Tebied] | 28.9 | 12.6
AAAAAGCGAGGAUAUACGAGUCAAAGAAAAGACAAGGAGAAACAUGAGGAUCACCCAUGUAGAAGGCGCAAAAA [Fiskers exclusion D2] | 21.8 | 25.3
AGCUAGUCAGGAUAUACGAGAAAGAAAGAAGACGUGAAGGGACAUGAGGAUCACCCAUGUAGAAGGGACUAGCA [Diamond 26] | 30.3 | 67.1
AGCAAACAUGAGGAUCACCCAUGUUAGGAUAUGAACGAAAUAAAAUAAAAAUAAAAGUUCAGAAGGGACGAGCA [Mat - Exclusion 1 - Eli mod - D27] | 22.4 | 37.1
GCUGGCGUAGGAUAUACAUGAGGAUCACCCAUGUGAGAGAAAAAAGUGAGAAAGAAAAGUAGAAGGACGUUAGG [salish99-ex3-116] | 40.4 | 106
AAGUCGUGAGGAUAUACAUGGAUAUACAUUCAUGUGGACCUACAUGAGGAUCACCCAUGUAGAAGGCACGAAUA [AJ 49] | 35.2 | 53.5
AAUAGUGAAGGAUAUACUGGAGGAGUACGAUAAAAGAAAGAACAUGAGGAUCACCCAUGUAGAAGGUCAGAAGU [JR_Exc002_Sub1227] | 22.9 | 24.1
AACAUGUUAGGAUAUUCAAGAAAAGAAAAGAAAGAAAAGAAGAAGAAGGAACAUGAGGAUCACCCAUGUAAGAA [EteRNA is fun!] | 33.3 | 27.1
AAAAAGAGAGGAUAUACAUGAGGAUCACCCAUGUGACACAAAAAAAAAAAAAAAAAAUGUAGAAGGCUCAAAAA [65%, Moding Exclusion3-cac2, 18] | 35.5 | 97.2
AUGUACCUAGGAUAUACAUGAGGAUCACCCAUGUACUGGGAGCAAUCAAGUUAAUAUUGUAGAAGGAGGUGAAA [JR_Exc003_Sub315] | 20.1 | 58.6
GUCAGCUGAGGAUAUACAGGUGAUGCCGCAUAACAAAAUAUACAUGAGGAUCACCCAUGUAGAAGGCGGAAGAC [Zalaa] | 73.4 | 20.2
